{
  "source": "patent US20250188151A1",
  "about": "“C-JUN ANTAGONIST PEPTIDES” (The University of Bath, priority 2022, published 2025)",
  "molecules": {"B1": {"name": "HingeW (peptide)", "peptide": "MASLEQRAEELARENEELEKEAEELVVEEDVLEEEIEQLEERNYALRKEIEDLQKQLEKLGAPHHHHHH", "notes": "Recombinant, capped (MAS at the N-terminus, GAP at the C-terminus) and C-terminally 6xHis-tagged, 69 amino acids; also called peptide 1"}},
  "key": {"cJun bZIP [1]": {"molecular_target": "cJun bZIP (Homo sapiens, UniProt P05412, S292Y)", "assay": "CD spectra and thermal denaturation of peptide/cJun heterodimers"}, "cJun bZIP [2]": {"molecular_target": "T1, cJun bZIP (human, UniProt P05412 252-308, limits assumed)", "T1 construct": "Purified from a His-SUMO fusion with the tag cleaved off; also called c-Jun bZIP domain; 60 amino acid c-Jun bZIP construct", "T1 chain": "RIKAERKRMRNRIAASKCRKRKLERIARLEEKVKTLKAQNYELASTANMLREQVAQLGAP", "assay": "CD thermal denaturation, peptide 5 µM and c-Jun 5 µM"}, "cJun bZIP [3]": {"molecular_target": "T1, cJun bZIP", "assay": "ITC (PEAQ-ITC), peptide injected into cJun, one site model"}, "cJun bZIP [4]": {"molecular_target": "T1, cJun bZIP", "assay": "cell-based or functional assay"}, "Serum stability (LC-MS)": {"assay": "Serum stability (LC-MS)", "assay_type": "in vitro ADME", "conditions": "human serum, 37° C.", "experimental": "Serum Stability: Peptide stocks (600 μM) were prepared in water and 50 μL added to 950 μL human serum (Merck) before incubation at 37° C. […] The supernatant was analysed by LC-MS and quantified using the sum of the two largest charge state intensities (1: 9+, 10+; 23,24: 3+, 4+)."}},
  "data": [
    {"molecule": "B1", "values": [
      {"measurement": "increase in heterodimer Tm relative to A-FosW/cJun", "setting": "cJun bZIP [1]", "result": 1.3, "unit": "°C"},
      {"measurement": "Fraction helicity at 20° C. (CD)", "setting": "cJun bZIP [1]; heterodimer with c-Jun, equimolar, 10 μM total", "result": 34.7, "unit": "%"},
      {"measurement": "Tm (° C.) (CD)", "setting": "cJun bZIP [1]; heterodimer with cJun bZIP, Example 1, listed as HingeW", "result": 71.2, "unit": "°C"},
      {"measurement": "ΔTm from component average (CD)", "setting": "cJun bZIP [1]; heterodimer with cJun vs average of component profiles, listed as HingeW", "result": "~40", "unit": "°C"},
      {"measurement": "Tm (° C.) of peptide-c-Jun heterodimer", "setting": "cJun bZIP [2]", "result": 71.2, "unit": "° C."},
      {"measurement": "-TΔS", "setting": "cJun bZIP [3]", "result": 17.6, "unit": "kcal/mol"},
      {"measurement": "Stoichiometry, n", "setting": "cJun bZIP [3]", "result": 0.93},
      {"measurement": "ΔG", "setting": "cJun bZIP [3]", "result": -13.4, "unit": "kcal/mol"},
      {"measurement": "ΔH", "setting": "cJun bZIP [3]", "result": -31, "unit": "kcal/mol"},
      {"measurement": "IC50 CD", "setting": "cJun bZIP [4]", "result": 13.4, "unit": "µM"},
      {"measurement": "peak intensities relative to starting values", "setting": "Serum stability (LC-MS); after 96 hours", "result": "no peaks corresponding to 1 are observed"},
      {"measurement": "degraded", "setting": "Serum stability (LC-MS); at 24 hours", "result": 67, "unit": "%"},
      {"measurement": "half-life", "setting": "Serum stability (LC-MS); exponential decay fit", "result": 18.9, "unit": "h"}
    ]}
  ]
}
